One test addresses IL2 (R&D, 202-IL) (UniProt P60568 21-153). Briefly: ELISA, scFv on anti-V5. From the text:
The scFv DNA sequence for each clone was synthesized as a GBLOCK® (Integrated DNA Technologies, Inc.) with a T7 promoter, a translation initiation site, the coding sequence for the scFv sequence with cMyc and V5 tags, and a T7 terminator sequence. Proteins from each of the GBLOCK® fragments were expressed using a cell-free transcription/translation system (Cosmo Bio USA, Inc., PUREFREX® 2.1, Product #GFK-PF213 with DS Supplement, Prod. #GFK-PF005). […] In these experiments, wells of a 384-well plate were coated with an anti-V5 antibody (Sv5-Pk1, BioRad) at lug/ml overnight at 4 degrees. After washing, wells were blocked with SUPERBLOCK™ (ThermoFisher, 37515) followed by addition of saturating levels of scFvs in SUPERBLOCK™. After washing, antigens were added and plates incubated for one hour. To detect PD1 binding, a biotinylated recombinant PD1 was used (PD1-HisAvi, Acro Biosystems, PD1-H82E4). […] Biotinylated antigens were detected using streptavidin HRP using standard methods. Varying amounts of labelled test antigen were added to show binding and to estimate relative affinities of the different scFvs.
On the technique in general: An ELISA detects its analyte on a solid surface through an enzyme-linked reagent.

Test [1] addresses T1, human IL-2 (human, UniProt P60568 21-153, biotin-labeled in the IL2RB blocking assay).
T1 construct: also called biotin-labeled IL-2 (Acro Biosystems IL2-H82E4)
The test is described as follows: HTRF IL-2:IL2RB. A general note: Time-resolved FRET reads energy transfer from a long-lived donor to a nearby acceptor.

Test [2] concerns the target T1, human IL-2. The test is described as follows: HTRF.
A further test addresses PD-1 (human, UniProt Q15116 25-167, limits assumed). Briefly: HTRF.
Test [3] addresses T2, biotinylated IL-2 receptor beta gamma heterodimer Fc (IL-2RBG; Acro ILG-H5254) (UniProt P14784 27-239; P31785 23-262, biotinylated).
T2 construct: bought heterodimer
T2 sequence (looked up) 1: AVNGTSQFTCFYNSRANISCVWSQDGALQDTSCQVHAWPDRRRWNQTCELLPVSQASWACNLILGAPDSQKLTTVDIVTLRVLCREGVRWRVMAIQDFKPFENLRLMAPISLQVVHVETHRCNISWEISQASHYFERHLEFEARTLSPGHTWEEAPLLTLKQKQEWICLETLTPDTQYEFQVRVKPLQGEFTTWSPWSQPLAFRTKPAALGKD
T2 sequence (looked up) 2: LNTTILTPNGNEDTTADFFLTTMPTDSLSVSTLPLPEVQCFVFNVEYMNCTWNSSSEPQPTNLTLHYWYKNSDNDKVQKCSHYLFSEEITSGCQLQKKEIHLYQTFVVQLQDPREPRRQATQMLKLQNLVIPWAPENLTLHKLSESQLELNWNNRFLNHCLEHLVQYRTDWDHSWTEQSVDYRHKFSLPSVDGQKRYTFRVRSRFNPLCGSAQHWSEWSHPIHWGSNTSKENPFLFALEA
The test is described as follows: ELISA, captured complex, biotin-IL-2RBG titrated.

Chain of PD-1 (Q15116 25-167 limits assumed): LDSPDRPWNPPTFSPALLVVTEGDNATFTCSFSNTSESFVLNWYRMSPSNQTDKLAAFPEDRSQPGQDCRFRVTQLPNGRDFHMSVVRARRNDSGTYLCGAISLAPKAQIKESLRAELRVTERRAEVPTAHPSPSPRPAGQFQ
T1 sequence (P60568 21-153 limits assumed): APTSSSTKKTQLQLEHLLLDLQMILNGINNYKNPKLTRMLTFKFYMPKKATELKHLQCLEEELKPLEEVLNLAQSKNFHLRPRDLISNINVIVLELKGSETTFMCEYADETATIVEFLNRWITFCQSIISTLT

B1: AB000694 (anti-PD1 control) scFv (AF005039) (scFv, V domains shown)
VH: QVQLVESGGGVVQPGRSLRLDCKASGITFSNSGMHWVRQAPGKGLEWVAVIWYDGSKRYYADSVKGRFTISRDNSKNTLFLQMNSLRAEDTAVYYCATNDDYWGQGTLVTVSS
VL: EIVLTQSPATLSLSPGERATLSCRASQSVSSYLAWYQQKPGQAPRLLIYDASNRATGIPARFSGSGSGTDFTLTISSLEPEDFAVYYCQQSSNWPRTFGQGTKVEIK
notes: scFv with cMyc and V5 tags; also called AB000694_nivo
In the case of B1, in the test with IL2 (R&D, 202-IL), the binding result was “no binding”.

B2: PD1-IL2-R02-B07 (scFv)
chain: QVQLVQSGAEVKKPGASVKVSCKASGDTFTRHYVHWVRQAPGQGLEWMGIINPSGGYASYAQKFQGRVTMTRDTSTSTVYMELSSLRSEDTAVYYCAAGLFIWGQGTLVTVSSASGGGGSGGGGSGGGGSHASDIQMTQSPSSLSASVGDRVTITCRASQSIGRWLAWYQQKPGKAPKLLIYSASNLETGVPSRFSGSGSGTDFTLTISSLQPEDFATYYCQQANSFPVTFGPGTKVDIK
In the case of B2, the “IL2RB Blocking” value with human IL-2 [1] is 1810. In the test with human IL-2 [2], the “IL2 Binding” value worked out at 628. For the same molecule, the “PD1 Binding” value with PD-1 was found to be 1680.

B3: AB000880 (anti-PD1 control) scFv (AF000327) (scFv)
scFv: MSTSTEQKLISEEDLQVQLVQSGAEVKKPGASVKVSCKASGYTFTTYYMHWVRQAPGQGLEWMGIINPSGGGTLYAQKFQGRVTMTRDTSTSTVYMELSSLRSEDTAVYYCAAGLFIWGQGTTVTVSSASGGGGSGGGGSGGGGSHASDIVMTQSPDSLAVSLGERATINCKASQSLLHSSSNKNYLAWYQQKPGQPPKLLIYWASTRESGVPDRFSGSGSGTDFTLTISSLQAEDVAVYYCQQYYSTPITFGPGTKVDIKGSGLNDIFEAQKIEWHEGKPIPNPLLGLDST
notes: also called AB000880_PD1_R04_C10
As for B3, in the test with IL2 (R&D, 202-IL), the binding result was “no binding”.

B4: AF004695 (other)
heavy 1: QVQLVESGGGVVQPGRSLRLDCKASGITFSNSGMHWVRQAPGKGLEWVAVIWYDGSKRYYADSVKGRFTISRDNSKNTLFLQMNSLRAEDTAVYYCATNDDYWGQGTLVTVSSAKTTAPSVYPLAPVCGDTTGSSVTLGCLVKGYFPEPVTLTWNSGSLSSGVHTFPAVLQSDLYTLSSSVTVTSSTWPSQSITCNVAHPASSTKVDKKIEPRGPTIKPCPPCKCPAPNAAGGPSVFIFPPKIKDVLMISLSPIVTCVVVDVSEDDPDVQISWFVNNVEVHTAQTQTHREDYNSTLRVVSALPIQHQDWMSGKEFKCKVNNKDLGAPIERTISKPKGSVRAPQVYVLPPPEEEMTKKQVTLTCMVTDFMPEDIYVEWTNNGKTELNYKNTEPVLDSDGSYFMYSDLRVEKKNWVERNSYSCSVVHEGLHNHHTTESFSRTPGGGGGSGGGGSGGGGSAPTSSSTKKTQLQLEHLLLDLQMILNGINNYKNPKLTDMLTFEFYMPKKATELKHLQCLERELKPLEEVLNLAQSKNFHLRPRDLISNINVIVLELKGSETTFMCEYADETATIVEFLNRWITFCQSIISTLT
heavy 2: QVQLVESGGGVVQPGRSLRLDCKASGITFSNSGMHWVRQAPGKGLEWVAVIWYDGSKRYYADSVKGRFTISRDNSKNTLFLQMNSLRAEDTAVYYCATNDDYWGQGTLVTVSSAKTTAPSVYPLAPVCGDTTGSSVTLGCLVKGYFPEPVTLTWNSGSLSSGVHTFPAVLQSDLYTLSSSVTVTSSTWPSQSITCNVAHPASSTKVDKKIEPRGPTIKPCPPCKCPAPNAAGGPSVFIFPPKIKDVLMISLSPIVTCVVVDVSEDDPDVQISWFVNNVEVHTAQTQTHREDYNSTLRVVSALPIQHQDWMSGKEFKCKVNNKDLGAPIERTISKPKGSVRAPQVYVLPPPEKEMTKKQVSLTCLVKDFMPEDIYVEWTNNGKTELNYKNTEPVLKSDGSYFMYSKLTVEKKNWVERNSYSCSVVHEGLHNHHTTKSFSRTPGGGGGSGGGGSGGGGSGGGGSQVQLVQSGAEVKKPGASVKVSCKASGDTFTRYYVHWVRQAPGQGLEWMGIINPSGGYASYAQKFQGRVTMTRDTSTSTVYMELSSLRSEDTAVYYCAAGLFIWGQGTLVTVSSASGGGGSGGGGSGGGGSHASDIQMTQSPSSLSASVGDRVTITCRASQSIGRWLAWYQQKPGKAPKLLIYSASNLETGVPSRFSGSGSGTDFTLTISSLQPEDFATYYCQQYNRFPVTFGPGTKVDIK
light: EIVLTQSPATLSLSPGERATLSCRASQSVSSYLAWYQQKPGQAPRLLIYDASNRATGIPARFSGSGSGTDFTLTISSLEPEDFAVYYCQQSSNWPRTFGQGTKVEIKRADAAPTVSIFPPSSEQLTSGGASVVCFLNNFYPKDINVKWKIDGSERQNGVLNSWTDQDSKDSTYSMSSTLTLTKDEYERHNSYTCEATHKTSTSPIVKSFNRNEC
notes: also called AF4695
Turning to B4, the binding result in test [3] is “binds”.

B5: AF004696 (other)
heavy 1: B4 heavy 1
heavy 2: QVQLVESGGGVVQPGRSLRLDCKASGITFSNSGMHWVRQAPGKGLEWVAVIWYDGSKRYYADSVKGRFTISRDNSKNTLFLQMNSLRAEDTAVYYCATNDDYWGQGTLVTVSSAKTTAPSVYPLAPVCGDTTGSSVTLGCLVKGYFPEPVTLTWNSGSLSSGVHTFPAVLQSDLYTLSSSVTVTSSTWPSQSITCNVAHPASSTKVDKKIEPRGPTIKPCPPCKCPAPNAAGGPSVFIFPPKIKDVLMISLSPIVTCVVVDVSEDDPDVQISWFVNNVEVHTAQTQTHREDYNSTLRVVSALPIQHQDWMSGKEFKCKVNNKDLGAPIERTISKPKGSVRAPQVYVLPPPEKEMTKKQVSLTCLVKDFMPEDIYVEWTNNGKTELNYKNTEPVLKSDGSYFMYSKLTVEKKNWVERNSYSCSVVHEGLHNHHTTKSFSRTPGGGGGSGGGGSGGGGSGGGGSQVQLVQSGAEVKKPGASVKVSCKASGYTFTRYYMHWVRQAPGQGLEWMGIINPRAGYTSYALKFQGRVTMTRDTSTSTVYMELSSLRSEDTAVYYCTSGWDVWGQGTLVTVSSASGGGGSGGGGSGGGGSHASDIQMTQSPSSLSASVGDRVTITCRASQSISTWLAWYQQKPGKAPKLLIYAASSLDSGVPSRFSGSGSGTDFTLTISSLQPEDFATYYCQQSYSFPVTFGQGTKVEIK
light: B4 light
notes: also called AF4696
Take B5: the binding result in test [3] is given as “binds”.

B6: PD1-IL2-R02-C02 (SEQ ID NO: 31) (scFv)
scFv: QVQLVQSGAEVKKPGVSVKVSCKASGYTFPRSYIHWVRQAPGQGLEWMGWINPHSGDTYYAQNFQGRVTMTRDTSTSTVYMELSSLRSEDTAVYYCARDTGLGYYYGSGDFDYWGQGTLVTVSSASGGGGSGGGGSGGGGSHASDIQMTQSPSSLSASVGDRVTITCRASQSISRYLNWYQQKPGKAPKLLIYTASSLQSGVPSRFSGSGSGTDFTLTISSLQPEDFATYYCQQANRFPLTFGPGTKVDIK
notes: V5-tagged in the assay
For the molecule B6, in the test with human IL-2 [1], the “IL2RB Blocking” value was 1070. Also, the “IL2 Binding” value in the test with human IL-2 [2] worked out at 298. Moreover, the “PD1 Binding” value with PD-1 was 1300.

B7: PD1-IL2-R02-C03 (SEQ ID NO: 32) (scFv)
scFv: QVQLVQSGAEVKKPGASVKVSCKASGYTFPRYHIHWVRQAPGQGLEWMGMINPSGGTTTYAQKFQGRVTMTRDTSTSTVYMELSSLRSEDTAVYYCARDTGLGYYYGSGDFDYWGQGTLVTVSSASGGGGSGGGGSGGGGSHASDIQMTQSPSSLSASVGDRVTITCRASQSISSWLAWYQQKPGKAPKLLIYAASSLQSGVPSRFSGSGSGTDFTLTISSLQPEDFATYYCQQSHSFPLTFGGGTKVEIK
notes: V5-tagged in the assay
As to B7, the “IL2RB Blocking” value with human IL-2 [1] was found to be 1210. Moreover, in the test with human IL-2 [2], the “IL2 Binding” value is 293. For the same molecule, the “PD1 Binding” value with PD-1 is 1380.

The values are drawn from patent US20240366776A1 (Hoffmann-La Roche, published 2024).
